Assays:
Experiment in all cases: cell-based or functional assay
[1] = target: BG505 (T332N) N301A (HIV-1)
[2] = target: JR-CSF N301A (HIV-1) (UniProt P20871)
[3] = target: JR-CSF N362A (HIV-1) (UniProt P20871)
[4] = target: HIV-1 envelope (Env) of pseudovirus 1012_11_TC21_3257 (HIV-1)
[5] = target: HIV-1 envelope (Env) of pseudovirus 191084 B7-19 (HIV-1)
[6] = target: HIV-1 envelope (Env) of pseudovirus 263-8 (HIV-1)
[7] = target: HIV-1 envelope (Env) of pseudovirus 3415.v1.c1 (HIV-1)
[8] = target: HIV-1 envelope (Env) of pseudovirus 6480.v4.c25 (HIV-1)
[9] = target: HIV-1 envelope (Env) of pseudovirus 6952.v1.c20 (HIV-1)
[10] = target: HIV-1 envelope (Env) of pseudovirus BF1266.431a (HIV-1)
[11] = target: HIV-1 envelope (Env) of pseudovirus BJOX025000.01.1 (HIV-1)
[12] = target: HIV-1 envelope (Env) of pseudovirus BJOX028000.10.3 (HIV-1)
[13] = target: HIV-1 envelope (Env) of pseudovirus CAAN5342.A2 (HIV-1)
[14] = target: HIV-1 envelope (Env) of pseudovirus CAP45.2.00.G3 (HIV-1)
[15] = target: HIV-1 envelope (Env) of pseudovirus CNE21 (HIV-1)
[16] = target: HIV-1 envelope (Env) of pseudovirus CNE53 (HIV-1)
[17] = target: HIV-1 envelope (Env) of pseudovirus Ce1086_B2 (HIV-1)
[18] = target: HIV-1 envelope (Env) of pseudovirus Ce1172_H1 (HIV-1)
[19] = target: HIV-1 envelope (Env) of pseudovirus Ce2060_G9 (HIV-1)
[20] = target: HIV-1 envelope (Env) of pseudovirus Ce704809221_1B3 (HIV-1)
[21] = target: HIV-1 envelope (Env) of pseudovirus Du156.12 (HIV-1)
[22] = target: HIV-1 envelope (Env) of pseudovirus HIV-001428-2.42 (HIV-1)
[23] = target: HIV-1 envelope (Env) of pseudovirus HIV-16055-2.3 (HIV-1)
[24] = target: HIV-1 envelope (Env) of pseudovirus HIV-16845-2.22 (HIV-1)
[25] = target: HIV-1 envelope (Env) of pseudovirus P1981_C5_3 (HIV-1)
[26] = target: HIV-1 envelope (Env) of pseudovirus Q23.17 (HIV-1)
[27] = target: HIV-1 envelope (Env) of pseudovirus Q769.d22 (HIV-1)
[28] = target: HIV-1 envelope (Env) of pseudovirus R3265.c06 (HIV-1)
[29] = target: HIV-1 envelope (Env) of pseudovirus TRJO4551.58 (HIV-1)
[30] = target: HIV-1 envelope (Env) of pseudovirus X1254_c3 (HIV-1)
[31] = target: HIV-1 envelope (Env) of pseudovirus X1632_S2_B10 (HIV-1)
[32] = target: HIV-1 envelope (Env) of pseudovirus X2131_C1_B5 (HIV-1)
[33] = target: HIV-1 envelope (Env) of pseudovirus YU2_N280Y (HIV-1) (UniProt P35961)
[34] = target: HIV-1 envelope (Env) of pseudovirus ZM135M.PL10a (HIV-1)
[35] = target: HIV-1 envelope (Env) of pseudovirus ZM197M.PB7 (HIV-1)
[36] = target: HIV-1 envelope (Env) of pseudovirus ZM53M.PB12 (HIV-1)
[37] = target: HIV-1 Env of pseudovirus 1394C9G1 (Rev-) (HIV-1)
[38] = target: HIV-1 Env of pseudovirus BG505/T332N (HIV-1)

354BG8 (antibody)
IC50 in TZM-bl assay [1]: 0.004 µg/mL
IC50 in TZM-bl assay [2]: 0.006 µg/mL
IC50 in TZM-bl assay [3]: 0.008 µg/mL

BG1 (antibody)
IC50 in TZM-bl assay [4]: > 30 µg/mL
IC80 in TZM-bl assay [4]: > 30 µg/mL
IC50 in TZM-bl assay [5]: > 30 µg/mL
IC80 in TZM-bl assay [5]: > 30 µg/mL
IC50 in TZM-bl assay [6]: > 30 µg/mL
IC80 in TZM-bl assay [6]: > 30 µg/mL
IC50 in TZM-bl assay [7]: 14.4 µg/mL
IC80 in TZM-bl assay [7]: > 30 µg/mL
IC50 in TZM-bl assay [8]: > 30 µg/mL
IC80 in TZM-bl assay [8]: > 30 µg/mL
IC50 in TZM-bl assay [9]: > 30 µg/mL
IC80 in TZM-bl assay [9]: > 30 µg/mL
IC50 in TZM-bl assay [10]: > 30 µg/mL
IC80 in TZM-bl assay [10]: > 30 µg/mL
IC50 in TZM-bl assay [11]: > 30 µg/mL
IC80 in TZM-bl assay [11]: > 30 µg/mL
IC50 in TZM-bl assay [12]: > 30 µg/mL
IC80 in TZM-bl assay [12]: > 30 µg/mL
IC50 in TZM-bl assay [13]: > 30 µg/mL
IC80 in TZM-bl assay [13]: > 30 µg/mL
IC50 in TZM-bl assay [14]: 0.149 µg/mL
IC80 in TZM-bl assay [14]: 0.383 µg/mL
IC50 in TZM-bl assay [15]: > 30 µg/mL
IC80 in TZM-bl assay [15]: > 30 µg/mL
IC50 in TZM-bl assay [16]: 1.32 µg/mL
IC80 in TZM-bl assay [16]: 7.47 µg/mL
IC50 in TZM-bl assay [17]: > 30 µg/mL
IC80 in TZM-bl assay [17]: > 30 µg/mL
IC50 in TZM-bl assay [18]: > 30 µg/mL
IC80 in TZM-bl assay [18]: > 30 µg/mL
IC50 in TZM-bl assay [19]: > 30 µg/mL
IC80 in TZM-bl assay [19]: > 30 µg/mL
IC50 in TZM-bl assay [20]: 3.25 µg/mL
IC80 in TZM-bl assay [20]: 18.5 µg/mL
IC50 in TZM-bl assay [21]: 1.52 µg/mL
IC80 in TZM-bl assay [21]: 6.03 µg/mL
IC50 in TZM-bl assay [22]: 1.09 µg/mL
IC80 in TZM-bl assay [22]: 3.12 µg/mL
IC50 in TZM-bl assay [23]: 4.3 µg/mL
IC80 in TZM-bl assay [23]: 16.9 µg/mL
IC50 in TZM-bl assay [24]: > 30 µg/mL
IC80 in TZM-bl assay [24]: > 30 µg/mL
IC50 in TZM-bl assay [25]: > 30 µg/mL
IC80 in TZM-bl assay [25]: > 30 µg/mL
IC50 in TZM-bl assay [26]: 0.008 µg/mL
IC80 in TZM-bl assay [26]: 0.016 µg/mL
IC50 in TZM-bl assay [27]: > 30 µg/mL
IC80 in TZM-bl assay [27]: > 30 µg/mL
IC50 in TZM-bl assay [28]: 0.611 µg/mL
IC80 in TZM-bl assay [28]: 3.44 µg/mL
IC50 in TZM-bl assay [29]: > 30 µg/mL
IC80 in TZM-bl assay [29]: > 30 µg/mL
IC50 in TZM-bl assay [30]: 0.048 µg/mL
IC80 in TZM-bl assay [30]: 0.086 µg/mL
IC50 in TZM-bl assay [31]: 0.079 µg/mL
IC80 in TZM-bl assay [31]: 0.25 µg/mL
IC50 in TZM-bl assay [32]: 0.116 µg/mL
IC80 in TZM-bl assay [32]: 0.313 µg/mL
IC50 in TZM-bl assay [33]: 9 µg/mL
IC80 in TZM-bl assay [33]: 23 µg/mL
IC50 in TZM-bl assay [34]: > 30 µg/mL
IC80 in TZM-bl assay [34]: > 30 µg/mL
IC50 in TZM-bl assay [35]: > 30 µg/mL
IC80 in TZM-bl assay [35]: > 30 µg/mL
IC50 in TZM-bl assay [36]: > 30 µg/mL
IC80 in TZM-bl assay [36]: > 30 µg/mL

BG18 IgG (354BG18) (antibody)
IC50 in TZM-bl assay [37]: 0.029 µg/mL
IC80 in TZM-bl assay [37]: 0.35 µg/mL
IC50 in TZM-bl assay [38]: < 0.0001 µg/mL
IC80 in TZM-bl assay [38]: 0.002 µg/mL
